Target: T1, Mus 16-3-3 epsilon (mouse, UniProt P62259 1-255)
T1 construct: VP16 fusion as in the yeast two-hybrid screen; also called 14-3-3 E; 14-3-3 epsilon
T1 sequence: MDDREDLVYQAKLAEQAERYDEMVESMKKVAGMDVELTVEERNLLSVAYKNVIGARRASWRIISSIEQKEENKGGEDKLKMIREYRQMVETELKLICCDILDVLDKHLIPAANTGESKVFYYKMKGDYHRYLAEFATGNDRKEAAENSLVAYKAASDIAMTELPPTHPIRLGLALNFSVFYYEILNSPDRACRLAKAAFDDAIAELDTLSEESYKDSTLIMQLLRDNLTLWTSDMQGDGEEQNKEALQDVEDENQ
Test: yeast two-hybrid, lexA-NADE bait against VP16 mouse embryo cDNA library; His selection, beta-gal assay and mating test

B1: NADE-lexA fusion protein (other)
chain: MANVHQENEEMEQPLQNGQEDRPVGGGEGHQPAANNNNNNHNHNHNHHRRGQARRLAPNFRWAIPNRQMNDGLGGDGDDMEMFMEEMREIRRKLRELQLRNCLRILMGELSNHHDHHDEFCLMP
notes: range 1-124; Bait of the yeast two-hybrid screen; also called pBTM116-NADE; lexA-X fusion protein
- binding result: binds

— patent publication US6939679 (RIKEN, dated 2005)
